Target: T1, αR205,231Kβ, γR138K ENaC mutant (Rattus norvegicus, UniProt P37089+P37090+P37091, R138K/R205K/R231K)
T1 construct: expressed in transfected cells; host or cells: Xenopus laevis oocytes
T1 sequence (P37089 1-698 R205K/R231K): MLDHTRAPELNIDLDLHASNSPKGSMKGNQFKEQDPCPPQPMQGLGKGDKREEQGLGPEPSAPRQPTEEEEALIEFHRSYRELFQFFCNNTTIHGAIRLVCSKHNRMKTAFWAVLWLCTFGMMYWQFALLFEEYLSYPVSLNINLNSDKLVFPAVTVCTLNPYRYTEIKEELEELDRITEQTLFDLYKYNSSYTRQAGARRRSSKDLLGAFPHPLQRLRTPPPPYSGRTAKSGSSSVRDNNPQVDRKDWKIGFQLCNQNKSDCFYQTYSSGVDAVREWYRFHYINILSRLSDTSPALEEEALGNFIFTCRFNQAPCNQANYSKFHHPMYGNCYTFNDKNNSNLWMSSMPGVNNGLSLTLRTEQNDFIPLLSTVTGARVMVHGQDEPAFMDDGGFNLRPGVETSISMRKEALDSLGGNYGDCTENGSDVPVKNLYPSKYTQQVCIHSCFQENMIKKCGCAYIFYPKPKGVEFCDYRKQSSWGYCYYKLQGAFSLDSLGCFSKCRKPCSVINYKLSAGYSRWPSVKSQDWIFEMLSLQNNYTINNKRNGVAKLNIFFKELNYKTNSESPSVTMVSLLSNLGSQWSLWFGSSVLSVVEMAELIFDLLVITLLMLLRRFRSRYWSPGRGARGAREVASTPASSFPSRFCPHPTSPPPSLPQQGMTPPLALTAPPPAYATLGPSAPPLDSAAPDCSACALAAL
T1 sequence (P37090 1-638): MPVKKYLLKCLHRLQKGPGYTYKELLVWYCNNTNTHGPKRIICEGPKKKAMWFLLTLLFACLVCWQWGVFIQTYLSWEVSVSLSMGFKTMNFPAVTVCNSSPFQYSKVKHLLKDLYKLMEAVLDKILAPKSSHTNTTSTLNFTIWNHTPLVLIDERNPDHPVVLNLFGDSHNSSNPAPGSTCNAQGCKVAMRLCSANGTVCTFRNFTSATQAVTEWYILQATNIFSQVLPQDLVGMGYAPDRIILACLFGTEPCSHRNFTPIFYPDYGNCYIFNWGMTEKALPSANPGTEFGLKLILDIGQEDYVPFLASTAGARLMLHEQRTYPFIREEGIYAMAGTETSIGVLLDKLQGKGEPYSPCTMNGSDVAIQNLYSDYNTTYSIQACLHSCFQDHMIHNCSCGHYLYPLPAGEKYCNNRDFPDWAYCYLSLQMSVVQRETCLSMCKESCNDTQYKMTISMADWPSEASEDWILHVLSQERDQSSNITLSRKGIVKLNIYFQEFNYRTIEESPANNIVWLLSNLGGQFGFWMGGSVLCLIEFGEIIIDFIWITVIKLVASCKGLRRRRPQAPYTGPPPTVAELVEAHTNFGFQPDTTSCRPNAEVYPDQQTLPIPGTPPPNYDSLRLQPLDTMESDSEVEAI
T1 sequence (P37091 1-650 R138K): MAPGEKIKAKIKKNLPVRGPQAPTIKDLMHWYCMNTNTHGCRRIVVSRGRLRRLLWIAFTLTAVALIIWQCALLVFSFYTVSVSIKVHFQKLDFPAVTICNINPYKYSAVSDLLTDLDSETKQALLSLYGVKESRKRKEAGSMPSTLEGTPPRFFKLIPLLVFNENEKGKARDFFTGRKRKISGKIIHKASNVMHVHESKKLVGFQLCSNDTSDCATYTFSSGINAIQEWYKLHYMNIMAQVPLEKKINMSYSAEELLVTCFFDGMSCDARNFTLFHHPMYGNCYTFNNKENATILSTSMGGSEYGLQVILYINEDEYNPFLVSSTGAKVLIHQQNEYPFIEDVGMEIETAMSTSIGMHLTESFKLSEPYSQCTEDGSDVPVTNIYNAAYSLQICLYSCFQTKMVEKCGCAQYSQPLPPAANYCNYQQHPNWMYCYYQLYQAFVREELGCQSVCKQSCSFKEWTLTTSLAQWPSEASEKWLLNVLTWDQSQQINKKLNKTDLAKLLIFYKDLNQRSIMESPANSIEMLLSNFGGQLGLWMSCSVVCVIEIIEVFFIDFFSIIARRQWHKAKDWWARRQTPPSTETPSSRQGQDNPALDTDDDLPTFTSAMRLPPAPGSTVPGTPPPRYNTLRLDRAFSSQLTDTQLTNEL
Experiment: Oocyte current of furin-insensitive ENaC mutant
Format: cell-based
Conditions: co-expression in oocytes
Protocol: Oocyte studies. Xenopus laevis oocytes were harvested and injected as described (Donaldson, et al., J. Biol. Chem. 277:8338 (2002)). Defolliculated healthy stage V-VI oocytes were injected with 0.3 ng of cRNA of each ENaC subunit. Injected oocytes were kept in modified Barth's saline (in mM: 88 NaCl, 1 KCl, 2.4 NaHCO3, 0.3 Ca(NO3)2, 0.41 CaCl2, 0.82 MgSO4, and 15 HEPES, adjusted to pH 7.35 with Tris). Oocytes were studied 24 hr after injection using the two electrode voltage clamp technique as previously described (Donaldson, et al., J. Biol. Chem. 277:8338 (2002)). Oocytes were clamped at a holding potential of […]. The change in amiloride-sensitive whole cell current as an indicator of ENaC activity was determined by subtracting the corresponding current value measured in the presence of 10 μM amiloride from that measured before the application of amiloride.

B1: SPLUNC1: human SPLUNC1, 256 amino acid secreted PLUNC protein (SEQ ID NO:1); rSPLUNC1 = V5/6His-tagged protein purified from HEK293 media (protein, listed as Homo sapiens)
chain: MFQTGGLIVFYGLLAQTMAQFGGLPVPLDQTLPLNVNPALPLSPTGLAGSLTNALSNGLLSGGLLGILENLPLLDILKPGGGTSGGLLGGLLGKVTSVIPGLNNIIDIKVTDPQLLELGLVQSPDGHRLYVTIPLGIKLQVNTPLVGASLLRLAVKLDITAEILAVRDKQERIHLVLGDCTHSPGSLQISLLDGLGPLPIQGLLDSLTGILNKVLPELVQGNVCPLVNEVLRGLDITLVHDIVNMLIHGLQFVIKV
modifications: V5/6His tag
notes: rSPLUNC1 = V5/6His-tagged protein purified from HEK293 media
In the case of B1, the “inhibition of furin-insensitive ENaC mutant” value is reported as “inhibited”.

— patent US9549967B2, “Regulation of sodium channels by PLUNC proteins” (The University of North Carolina at Chapel Hill, priority 2009, dated 2017)
